Biological target: PL6S* (PvuII-L6-I-SceI* fusion enzyme: wt PvuII fused via linker L6 to I-SceIΔC9,D44N,D145A) (UniProt P03882)
Assay: AUC

PL6S* (PvuII-L6-I-SceI* fusion enzyme: wt PvuII fused via linker L6 to I-SceIΔC9,D44N,D145A) (from UniProt P03882 1-226)
stoichiometry N: 2

Source: article PMC3258161
